Laboratory results published in patent EP4613777A1 (Guangdong Keyangle Life Technology Co., Ltd., dated 2025).

Legend:
Peptide fragment KL19 = biological target: T1, Peptide fragment KL19; assay: indirect ELISA, peptide as coating antigen
T1 construct: Used as ELISA coating antigen
T1 peptide: KEQPDPGAVAAAAILRAIL

Peptide fragment KS24 = biological target: T2, Peptide fragment KS24; assay: indirect ELISA, peptide as coating antigen
T2 construct: It contains VLQS; Used as ELISA coating antigen
T2 peptide: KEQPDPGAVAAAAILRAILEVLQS

binding result (Peptide fragment KL19): no binding | binding result (Peptide fragment KS24): binds
B1: KA-001 monoclonal antibody (antibody, mouse IgG1, kappa, V domains shown)
VH: DVKIVESGGGLVKLGGSLKLSCAASGFTFSRNYMSWVRQTPEKRLELVAGINNNGGSTYYPDTVKGRFTISRDNAKNTLYLQMSSLRSEDTAIYYCAKRGFITTVGAMDYWGQGISVTVSS
VL: DIQMTQTTFSLSASLGDRVTISCRASQDISNYLNWYQQIPDGTVKLLIYYTSRLHSGVPSRFSGSGSGTDYSLTISNLEQEDIATYFCQQVHTLPYTFGGGTKLEMKR
notes: also called antibody KA-001
